From patent publication US20250263490A1 (VIB VZW, published 2025)
Positions count from the first letter of the chain named.

T1: K89D
T1 construct: also called human CI-M6PR Dom1-3His6 K89D
T1 chain: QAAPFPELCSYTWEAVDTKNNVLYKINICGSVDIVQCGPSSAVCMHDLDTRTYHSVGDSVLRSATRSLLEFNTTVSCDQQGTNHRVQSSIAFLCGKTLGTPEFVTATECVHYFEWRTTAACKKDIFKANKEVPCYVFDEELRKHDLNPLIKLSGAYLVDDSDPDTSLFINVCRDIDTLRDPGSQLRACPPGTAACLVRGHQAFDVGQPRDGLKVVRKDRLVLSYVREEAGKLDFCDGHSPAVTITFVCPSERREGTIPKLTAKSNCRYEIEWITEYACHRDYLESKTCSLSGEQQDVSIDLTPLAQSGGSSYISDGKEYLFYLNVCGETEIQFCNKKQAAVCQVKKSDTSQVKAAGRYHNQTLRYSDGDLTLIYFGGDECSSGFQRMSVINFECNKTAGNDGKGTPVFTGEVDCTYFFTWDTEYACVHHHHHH

T2: L197D
T2 construct: also called human CI-M6PR Dom1-3His6 L197D
T2 chain: T1 chain with D49K, L157D

T3: D409F
T3 construct: also called human CI-M6PR Dom1-3His6 D409F
T3 chain: T1 chain with D49K, D369F

T4: F457E
T4 construct: also called human CI-M6PR Dom1-3His6 F457E
T4 chain: T1 chain with D49K, F417E

B1: anti-CI-M6PR VHH7 (VHH)
VHH: QVQLQESGGGLVQPGGSLRLSCAASGIIFSDNRMDWYRQAPGKQREWVATLASYGWKTYADSVKGRFTISRDNTKNTVYLRMNSLKPEDTAVYYCKASSPVLNDIWGQGTQVTVSS
notes: His6-tagged (Pichia pastoris)
B2: anti-CI-M6PR VHH8 (VHH)
VHH: QVQLQESGGGLVQAGGSLRLSCEASGRTFNTYNWGWFRQAPGKEREFVAAIRWSSSKTSYADSVKGRFTISRDNAKNTIYLQMNSLKPEDTAVYYCAASIVDFTTNPSHFGSWGQGTQVTVSS
notes: His6-tagged (Pichia pastoris)
B3: anti-CI-M6PR VHH5 (VHH)
VHH: QVQLQESGGGLVQAGGSLKLSCAAAGRTFSRLAMGWFRQAPGKEREFVAAISENGDSIHYSDSVKGRFAVSRDNAKNTVYLQMNSLKPEDTAIYYCAADRAAYYCSGSGCYPSRAPAAASYDYWGQGTQVTVSS
notes: His6-tagged; made in Pichia pastoris, later also in E. coli WK6
B4: anti-CI-M6PR VHH 1H11 (VHH)
VHH: QVQLQESGGGLVQPGGSLRLSCAASGIIFSDNRMDWYRQAPGKQREWVATLASYGWKTYADSVKDRFTISRDNAKNTVNLYMNSLQPEDTAVYYCNSGQYWGQGTQVTVSS
notes: made in E. coli WK6, His-tag purified
B5: anti-CI-M6PR VHH1 (VHH)
VHH: QVQLQESGGGLVQPGGSLRLSCVASGFTFDRYWMNWLRQIPGKEIEWVSTINTGGTGTYYDDSVKGRFSISRDDAKNTLYLTMNSLKTEDTAVYYCARGATYYRGNSAIRGQGTQVTVSS
notes: as for B3

target: T5, human cation-independent mannose-6-phosphate receptor, native, on cells (human, UniProt P11717 41-2491); assay: flow cytometry, FLAG3-His6 VHH on HEK293T cells
T5 construct: whole, on cells; also called native CI-M6PR; cell-surface hCI-M6PR
Excerpt: Synthetic DNA fragments encoding VHHs were ordered (IDT, Leuven, Belgium) and subcloned into an E. coli expression vector under control of an IPTG-inducible lac promoter, in frame with N-terminal PelB signal peptide (which directs the recombinant proteins to the periplasmic compartment) and C-terminal FLAG3 and His6 tags. […] VHH proteins were purified from these clones by means of IMAC chromatography followed by desalting according to well established procedures¹⁰⁶. Cells used herein were recovered using cell dissociation non-enzymatic solution (Sigma Aldrich, cat. #C5914-100ML) and resuspended to a final concentration of 1,000,000 cells/mL in FACS buffer. Cells were incubated with different concentrations of purified FLAG3-tagged VHHs for 30 minutes on ice with shaking, followed by washing and incubation with mouse M2 anti-Flag mAb (Sigma Aldrich, cat. #F-1804) in FACS buffer for 30 min on ice with shaking, followed again by washing. […] Flow cytometry and analysis were done on an Attune NxT Flow Cytometer (Thermo Fisher Scientific).
Moreover, cross-reactivity to mouse CI-M6PR was analyzed, in view of the amino acid homology between mouse and human being overall about 80% identity, but for domain 1-3 of CI-M6PR just about 75% identity.

Row | EC50 [nM] | Binder
1 | 20 | B1
2 | 0.8 | B2

Target: T1, K89D
Assay: ELISA on coated antigen (100 ng), anti-VHH-HRP, A450
Protocol: (§1) To determine the effect of site-directed mutations, an ELISA was performed. To this end, 100 ng of each successfully purified mutant was coated per well on Nunc Maxisorp plates in 50 mM MES, 150 mM NaCl, pH 6.5 buffer overnight at 4° C. […] Coating-only controls were included for background correction. […] Reactions were stopped after five minutes using a 2N H₂SO₄ solution and plates were read at 450 nm, with a 655 nm background correction. Data were analyzed using the GraphPad Prism 9 software.

Row | EC50 (read off the curve) [nM] | Binder
3 | ~3 | B2
4 | ~2 | B3
5 | ~0.7 | B4

target: T6, recombinant human domain 1-3His6 of the cation-independent mannose-6-phosphate receptor (human, UniProt P11717 41-467); assay: as above
T6 construct: Biotinylated (NHS-PEG4-biotin) for BLI; Glycosylated; also called hDom1-3His6; hCI-M6PRD1-D3
Protocol: as §1

Row | EC50 (read off the curve) [nM] | Binder
6 | ~0.3 | B1
7 | ~3 | B2
8 | ~2 | B3
9 | ~10 | B5
10 | ~0.4 | B4

Target: T2, L197D
Assay: as above
Protocol: as §1

Row | EC50 (read off the curve) [nM] | Binder
11 | ~20 | B2
12 | ~4 | B3
13 | ~0.4 | B4

Target: T3, D409F
Assay: as above
Protocol: as §1

Row | EC50 (read off the curve) [nM] | Binder
14 | ~5 | B2
15 | ~4 | B3
16 | ~0.4 | B4

Target: T4, F457E
Assay: as above
Protocol: as §1

Row | EC50 (read off the curve) [nM] | Binder
17 | ~10 | B2
18 | ~0.4 | B4
